Test results published in a protein production outcome set (Wang et al. 2014).

Test: label from the status in PepcDB records

| Sequence | protein production |
| --- | --- |
| MRFSREALLELEASRLAPYAQKARDTRGRAHPEPESLYRTPYQKDRDRILHTTAFRRLEYKTQVLPGWAGDYYRTRLTHTLEVAQVSRSIARALGLNEDLTEAIALSHDLGHPPFGHTGEHVLNALMQDHGGFEHNAQALRILTHLEVRYPGFRGLNLTYEVLEGIATHEAAYSPGFKPLYEGQGTLEAQVVDLSDAIAYAAHDLDDGLRAGLLHPEELKEVELLQALALEEGLDLLRLPELDRRVLVRQLLGYFITAAIEATHRRVEEAGVQSAEAVRRHPSRLAALGEEAEKALKALKAFLMERFYRHPEVLRERRKAEAVLEGLFAAYTRYPELLPREVQAKIPEEGLERAVCDYIAGMTDRFALEAYRRLSP | not failed |
| MNESGFLIDTHAHIDGHDFAADFDAMLSRAWEAGLSHIVTVGADLESSRAAVALAGRHERIWCAVGIHPHDAGRVTDRCYDEIRTLAQGNPKVAAIGEIGLDFFRDRSPRDEQEQVFRRFIRLARELALPIVVHDRDAHERVMAILREEKARDVGGVLHCFSGDLAMARECVDMGFLISIPGTVTYPSNEALREVVRGVKIEHLLVETDCPYLTPVPHRGKRNEPAYVRLTAEKVAELKGLSLEDVGRITSLNARRLFGIGESDQAARIAYRIRNSLYLNITNRCSNRCSFCAKFDDYTVKGHHLRLDHEPDSAEVLAAVGEPGPVDEIVFCGFGEPMLRLDLIVEVARELKKRGFRIRINTDGQANLVHGRNVLPELQGLVDCISVSLNAADADTYARLCNTPFGTNGFNGICRFLEEARLYIPTVVATAVTVPGIDVAAVRALAESLGVEFREREFAEVGLEHHHHHH | not failed |
| MHHQRKTHVDNNIAAVELAKAYRLLNHGPTVLVSARSQGIDNVMAAAWCCALDFAPPKLTVVLDKMTKTREFIEQSGMFVIQVPTVAQLQLTHRVGSQSLADDANKLLNCGVELFEMAGHDLPFVAGCSAWLACKLIPEPNNQLQYDLFIAEVIGAWADTQVFNHGHWHFDTAPADKRSLHYIAGGQFYAIGESFNAD | not failed |
| MARVRFENKRVNMSKLSQFGFEPNQNGQYQFRILIMQGQFEMIIELNTDGSLNTTLTDTTTSEVYVLHLTSQAHGQFVGQVAQAYQDVLYNIEQHCYDNDVFQSTPERKLIAQVKAAYGDDLEFLWPKFPQNAVWRRSDTHKWYGALLTVTSDKLALPGATHVVTVLDLRARPEDLSMLIDGQHYLPGYHMNKKHWYSILLDDVVPLATIMDDVKVSYMLAKLEHHHHHH | not failed |
| MVIRRLYQFCASHVVRNCSSLKCAQNIHGHNYEVEVFIETNRLDNANMALDFGLMQQEMQVFIESFDHAHHFWDKESLEFQRFIENHCVRYVKCSFNLSAESYALMFLYYLTKILQKSVFSNDEGELKVSSVRVHETKNGYAESFLKDLENPHFKSLVHDHCVSFSQGIQNLWHDKDFFNKIISDEKQCFFHAKPLHQIP | failed |
| MRNQFDLELHELEQSFLGLGQLVLETASKALLALASKDKEMAELIINKDHAINQGQSAIELTCARLLALQQPQVSDLRFVISIMSSCSDLERMGDHMAGIAKAVLQLKENQLAPDEEQLHQMGKLSLSMLADLLVAFPLHQASKAISIAQKDEQIDQYYYALSKEIIGLMKDQETSIPNGTQYLYIIGHLERFADYIANICERLVYLETGELVDLN | not failed |
| EMRKFLVVLDDSRECLNAMRFAAMRAAHTGGGVAILSIIPPDEFNHWIGVGEVMREEARERIHAHFEVFAKWMRDKQGVEPELVIREGEAVPEIIAHVQEDPEIGVLVLGAGTDKKGPGPLVSQLSRSSGSLPIPITIVPGDLSKE | failed |
| MIDCAIIGGGPAGLSAGLYATRGGVKNAVLFEKGMPGGQITGSSEIENYPGVKEVVSGLDFMQPWQEQCFRFGLKHEMTAVQRVSKKDSHFVILAEDGKTFEAKSVIIATGGSPKRTGIKGESEYWGKGVSTCATCDGFFYKNKEVAVLGGGDTAVEEAIYLANICKKVYLIHRRDGFRCAPITLEHAKNNDKIEFLTPYVVEEIKGDASGVSSLSIKNTATNEKRELVVPGFFIFVGYDVNNAVLKQEDNSMLCKCDEYGSIVVDFSMKTNVQGLFAAGDIRIFAPKQVVCAASDGATAALSVISYLEHH | failed |
| MKLASGFLVLWLSLGGGLAQSDTSPDTEESYSDWGLRHLRGSFESVNSYFDSFLELLGGKNGVCQYRCRYGKAPMPRPGYKPQEPNGCGSYFLGLKVPESMDLGIPAMTKCCNQLDVCYDTCGANKYRCDAKFRWCLHSICSDLKRSLGFVSKVEAACDSLVDTVFNTVWTLGCRPFMNSQRAACICAEEEKEEL | failed |
| MKMKHAFGPIILACVLFFIIILIPSKSLVSLISDKKVEDAATSLQKEKLQSVFLQQKMLENSQYLPMYGSSEFLRMDAYHPSNYFKVNPAGFTPFLIGTGGTQSLAHILNMTSTMDELEGKKVVFVLSPQWFTKTGVSQGDFTNNFSKQQAYHFIFNDKINPEMKKQIAKRLLDYKVVQEDDILKNSLEGIVYNDSKHNIKAGLVKPLAYMHRNILDHRDLFNSLFKIEPMKEKTNIGLRSISWEDARKHAEQEGKAESTTNTFGIENPYYHKNNLKKKLKGLKNFRANETYDESPEYDDLQIILELFKEKNVKPLFISVPVNGPWYDYTGFPKERREVYYKKVREQVEKAGYPVIDFSGHEYDKYFLKDTIHLGWKGWIYFDEAVQKFYSEKLEHHHHHH | not failed |
| MSRKRTENGSESGPATSHVPVDRFGFLKQEHANSPERFSKSKTTSSTDHDREERKVRKWRKMIGVGGSDWKHYVRRKPNVVRRRIRKGIPDCLRGLVWQLISGSRDLLLMNPGVYEQLVIYETSASELDIIRDISRTFPSHVFFQKRHGPGQRSLYNVLKAYSVYDRDVGYVQGMGFIAGLLLLYMSEEDAFWLLVALLKGAVHAPMEGLYHAGLPLVQQYLFQLESLVKELIPKLGEHFTQEMINPSMYASQWFITVFSYSFPFPLALRIWDVFLSEGVKIVFKVGLALLKYCQDELVSKVTV | failed |
| MFKSPENDSLVSAVFDSSPIGIQIIDLETGMREKINQTACVLLGDTKDNLMAKSVFEDCTWLGKDKFLFVIERLKENKTLKNHIVQFENHQGNELTISYDISEFKYRSKRLVTVSMNDVT | failed |
| MKTIDLADIQAFLYRESRLLDDKAWDAWLDCYRADAVFWMPSWDDADALVTDPQREISLIYYPNRQGLEDRVFRIKTERSSATVPDTRTSHNIANVERESADGDVHTVRFNWHTLSYRYKTVSSYFGMSRYAIDFSGDAPKIVSKYVVLKNDYINQLIDIYHI | not failed |
| MGTVSKALSLLALFNHGRLEMGLSELTRLSGMNKATVYRMMTELQAAGFVEQMNGDRAYRLGPEVLRLAALREAAVPLLSVSRDVLRRLCDETGETSHMSIQRNGQLTTLTHAYSSHHGTRVAMEDAEILSLHATGSGLAFLAFSSEEVVEHALSAPLIKHTPQTETDPARLRQALAEAQQSGVAESVGGFEADVHSHAAPIFGADQRPIGALAVAAPVSRMTAELKSRVRAALKEAALDLTQRTGGFCPPGYPGAA | failed |
| MAEVKTRDEHDEEPPRFDAQAATIAPETILLHPGPAAIVALGGGEALCNALGEPLRPLFSPEAADSLLPEIRSALETGVPQQKVVDVGRDGLPAQFDLIILPTAEPGRVVVIGRDVTLERTLRKALTDSRQRYKDFVDLSIDFTWETGPDGRFVFVSPDGALGYAARDLVGALPWTLMDITDAQSGATVFNSPVRVKDVDIWVRRRDGTLACLKTSSMPVFDASGEWSGGRGVCHDITEQHDRDKALARALNRQRVVANVERTFRDEIDPSNMLNVAAEALARSVGGDGCLIYRAALDDGPDRPFLPRGRFGEGGDEKVVLTLEALGEGAHAQTTPDGKWTVLVAASRYRRQINGAVVLWRRIERGAWSEDDHLLIVDVANQIGSANEQIGQHDRIISMSRTDGLTGLLNRRAFFDDMDRRLKGPPGLVERRAGEEAARRSERPARSALLYIDLDNFKWVNDAHGHLRGDEALMTVRKILTDHTRATDIVARLGGDEFAIWLEGADAEAASAKAAEILAEDALLRPFDGSPDRPLSLSIGLAIHDPASGEGVEDLTARADMAMYAAKHGGKGRFSLSLPPPHTPT | failed |
| MEVKEVELELSSEATFLSKTSIGEITAGEKGLNPMELLLVSIGSCSGVDVYHILKKKRQEVKDIKIFLKGKRREKHPKIYEEIEIKYVAVGKVEEKALEQAVKLSTEKYCSVLAMVKPSTNLKISWEVKWEE | not failed |
